Test results reported in the Immune Epitope Database (IEDB).

Key:
HLA-B*44:02 = assay: IEDB peptide-MHC binding, purified MHC/competitive/radioactivity; filed as Kd, often an IC50 or EC50 that approximates it; ≥ and ≤ were set here for values at or beyond the usual limits of such assays
HLA-B*40:02 = assay: as above
HLA-B*40:01 = assay: as above
HLA-B*18:01 [1] = assay: as above
HLA-B*45:01 = assay: as above
HLA-B*44:03 = assay: as above
HLA-A*02:01 [2] = assay: as above
HLA-A*23:01 = assay: as above; details: source organism: SARS coronavirus Tor2
HLA-A*26:01 [3] = assay: as above
HLA-A*01:01 = assay: as above
HLA-A*30:02 = assay: as above
HLA-A*24:02 = assay: as above; details: source organism: SARS coronavirus Tor2
HLA-A*29:02 = assay: as above
HLA-A*32:01 = assay: as above; details: source organism: Mammarenavirus guanaritoense
HLA-A*30:01 = assay: as above; details: source organism: Mammarenavirus guanaritoense
HLA-B*57:01 = assay: IEDB peptide-MHC binding, purified MHC/competitive/fluorescence; filed as Kd, often an IC50 or EC50 that approximates it; ≥ and ≤ were set here for values at or beyond the usual limits of such assays; details: source organism: Orthohantavirus tulaense
HLA-A*26:01 [4] = assay: as above; details: source organism: Orthohantavirus tulaense
HLA-B*15:01 = assay: as above; details: source organism: Orthohantavirus tulaense
HLA-B*18:01 [5] = assay: as above; details: source organism: Orthohantavirus tulaense
HLA-B*27:03 = assay: as above; details: source organism: Orthohantavirus tulaense
HLA-B*51:01 = assay: as above; details: source organism: Orthohantavirus tulaense
HLA-A*03:01 = assay: IEDB peptide-MHC binding, purified MHC/direct/fluorescence; filed as Kd, often an IC50 or EC50 that approximates it; ≥ and ≤ were set here for values at or beyond the usual limits of such assays; details: source organism: Orthohantavirus tulaense
HLA-A*02:01 [6] = assay: as above; details: source organism: Orthohantavirus andesense
[7] = source organism: Lymphocytic choriomeningitis virus (strain Armstrong)
[8] = source organism: SARS coronavirus Tor2
[9] = source organism: Mammarenavirus guanaritoense

Which results are given for LDVLCLSSL?
Kd (HLA-B*44:02; [7]): 7760 nM; Kd (HLA-B*40:02; [7]): 43.4 nM; Kd (HLA-B*40:01; [7]): 6120 nM; Kd (HLA-B*18:01 [1]; [7]): ≥ 22900 nM; Kd (HLA-B*45:01; [7]): 8170 nM; Kd (HLA-B*44:03; [7]): 7540 nM

For LTDLGLIYTA, which Kd (HLA-A*02:01 [2]; source organism: Lassa virus GA391) is on record?
Its Kd is 893 nM.

How did the Kd (HLA-A*02:01 [2]; source organism: Homo sapiens) turn out when LTVILGVLL was run?
Its Kd is 2630 nM.

Which Kd (HLA-A*02:01 [2]; source organism: Hepatitis B virus subtype adw2) does the source give for LVVDFSQFSR here?
Its Kd is at least 35000 nM.

Which Kd (HLA-A*23:01) does the source give for MEAQFLYLY here?
The Kd was 16800 nM.

And the Kd (HLA-A*26:01 [3]; [8])?
The Kd was 1930 nM.

And the Kd (HLA-A*01:01; [8])?
The Kd was 1570 nM.

What about the Kd (HLA-B*44:02; [8]) of the same sequence?
The Kd was 2.15 nM.

And the Kd (HLA-B*40:02; [8])?
The Kd was 2220 nM.

And the Kd (HLA-B*40:01; [8])?
Its Kd is 1850 nM.

What about the Kd (HLA-B*18:01 [1]; [8]) of the same sequence?
Its Kd is 0.292 nM.

What about the Kd (HLA-B*45:01; [8]) of the same sequence?
Its Kd is 12.2 nM.

What about the Kd (HLA-A*30:02; [8]) of the same sequence?
Its Kd is 11.7 nM.

And the Kd (HLA-B*44:03; [8])?
The Kd was 0.933 nM.

What about the Kd (HLA-A*24:02) of the same sequence?
Its Kd is 9600 nM.

And the Kd (HLA-A*29:02; [8])?
Its Kd is 5.98 nM.

What does the source list for METDFLELAM?
Kd (HLA-B*44:02; [8]): 24.3 nM; Kd (HLA-B*40:02; [8]): 289 nM; Kd (HLA-B*40:01; [8]): 15.6 nM; Kd (HLA-B*18:01 [1]; [8]): 37.6 nM; Kd (HLA-B*45:01; [8]): 123 nM; Kd (HLA-B*44:03; [8]): 10.9 nM

MLDDLTMGY was tested. Which Kd (HLA-A*26:01 [3]; [9]) did it give?
The Kd was 7290 nM.

What about the Kd (HLA-A*01:01; [9]) of the same sequence?
The Kd was 1.12 nM.

What about the Kd (HLA-A*32:01) of the same sequence?
Its Kd is 2140 nM.

And the Kd (HLA-A*30:02; [9])?
Its Kd is 226 nM.

What about the Kd (HLA-A*30:01) of the same sequence?
Its Kd is 12900 nM.

What about the Kd (HLA-A*29:02; [9]) of the same sequence?
The Kd was 125 nM.

PDTTYLGPL was tested. Which Kd (HLA-B*44:02; [7]) did it give?
Its Kd is at least 77900 nM.

What about the Kd (HLA-B*40:02; [7]) of the same sequence?
Its Kd is at least 77200 nM.

And the Kd (HLA-B*40:01; [7])?
Its Kd is at least 76100 nM.

And the Kd (HLA-B*18:01 [1]; [7])?
The Kd was at least 75300 nM.

What about the Kd (HLA-B*45:01; [7]) of the same sequence?
The Kd was at least 21900 nM.

And the Kd (HLA-B*44:03; [7])?
The Kd was at least 78100 nM.

Which Kd (HLA-B*44:02; [8]) does the source give for QELLIQQWI here?
The Kd was 91.2 nM.

And the Kd (HLA-B*40:02; [8])?
Its Kd is 61.7 nM.

What about the Kd (HLA-B*40:01; [8]) of the same sequence?
Its Kd is 186 nM.

And the Kd (HLA-B*18:01 [1]; [8])?
Its Kd is 8660 nM.

And the Kd (HLA-B*45:01; [8])?
The Kd was 316 nM.

And the Kd (HLA-B*44:03; [8])?
The Kd was 13500 nM.

What does the source list for REAVESCPLM?
Kd (HLA-B*44:02; [7]): 525 nM; Kd (HLA-B*40:02; [7]): 9.86 nM; Kd (HLA-B*40:01; [7]): 105 nM; Kd (HLA-B*18:01 [1]; [7]): 3040 nM; Kd (HLA-B*45:01; [7]): 8140 nM; Kd (HLA-B*44:03; [7]): 2180 nM

For REGVFVFNG, which Kd (HLA-B*44:02; [8]) is on record?
Its Kd is 4770 nM.

What about the Kd (HLA-B*40:02; [8]) of the same sequence?
Its Kd is 222 nM.

What about the Kd (HLA-B*40:01; [8]) of the same sequence?
Its Kd is 1550 nM.

And the Kd (HLA-B*18:01 [1]; [8])?
The Kd was at least 39000 nM.

And the Kd (HLA-B*45:01; [8])?
Its Kd is 136 nM.

What about the Kd (HLA-B*44:03; [8]) of the same sequence?
The Kd was 298 nM.

Which results are given for RELNGGAVT?
Kd (HLA-B*44:02; [8]): 9110 nM; Kd (HLA-B*40:02; [8]): 21.9 nM; Kd (HLA-B*40:01; [8]): 212 nM; Kd (HLA-B*18:01 [1]; [8]): ≥ 53300 nM; Kd (HLA-B*45:01; [8]): 43.9 nM; Kd (HLA-B*44:03; [8]): 7290 nM

SDEVARDLSL was tested. Which Kd (HLA-B*44:02; [8]) did it give?
Its Kd is 5650 nM.

And the Kd (HLA-B*40:02; [8])?
Its Kd is 10600 nM.

What about the Kd (HLA-B*40:01; [8]) of the same sequence?
The Kd was 353 nM.

What about the Kd (HLA-B*18:01 [1]; [8]) of the same sequence?
The Kd was at least 43200 nM.

And the Kd (HLA-B*45:01; [8])?
Its Kd is 262 nM.

What about the Kd (HLA-B*44:03; [8]) of the same sequence?
The Kd was 3870 nM.

Which Kd (HLA-B*57:01) does the source give for SLFGAAVSL here?
The Kd was at least 20000 nM.

And the Kd (HLA-A*26:01 [4])?
Its Kd is at least 20000 nM.

What about the Kd (HLA-B*15:01) of the same sequence?
The Kd was 49.7 nM.

What about the Kd (HLA-B*18:01 [5]) of the same sequence?
Its Kd is at least 20000 nM.

And the Kd (HLA-B*27:03)?
The Kd was at least 20000 nM.

And the Kd (HLA-B*51:01)?
The Kd was at least 20000 nM.

What about the Kd (HLA-A*03:01) of the same sequence?
The Kd was at least 20000 nM.

What about the Kd (HLA-A*02:01 [6]) of the same sequence?
Its Kd is at most 0.1 nM.

How did the Kd (HLA-A*02:01 [2]; source organism: Homo sapiens) turn out when SLHVGTQCA was run?
Its Kd is 1440 nM.

How did the Kd (HLA-A*02:01 [2]; source organism: Homo sapiens) turn out when SLRVLAAGL was run?
The Kd was at least 50000 nM.

What does the source list for TEQFINYCL?
Kd (HLA-B*44:02; [9]): 100 nM; Kd (HLA-B*40:02; [9]): 32.3 nM; Kd (HLA-B*40:01; [9]): 306 nM; Kd (HLA-B*18:01 [1]; [9]): 399 nM; Kd (HLA-B*45:01; [9]): 129 nM; Kd (HLA-B*44:03; [9]): 416 nM

Which Kd (HLA-B*44:02; [8]) does the source give for WEILKFLITG here?
Its Kd is 8580 nM.

What about the Kd (HLA-B*40:02; [8]) of the same sequence?
The Kd was 542 nM.

What about the Kd (HLA-B*40:01; [8]) of the same sequence?
Its Kd is 19000 nM.

What about the Kd (HLA-B*18:01 [1]; [8]) of the same sequence?
The Kd was at least 41600 nM.

And the Kd (HLA-B*45:01; [8])?
Its Kd is 1170 nM.

What about the Kd (HLA-B*44:03; [8]) of the same sequence?
Its Kd is 2930 nM.
